Experimental findings from the RNAGym collection of RNA variant scans (doi:10.1073/pnas.2313332121) are described below.

B1: TPR t1 (parent)
chain: GACCAAUCUGCCCUCAGAGCUCGAGAACAUCUUCGGAUGCAGAGGAGGCAGGCUUCGGUGGCGCGAUAGCGCCAACGUCCUCAACCUCCAAUGCAUCCCACCACAUGAUGAUGCCUGAAGAGCCUUGGUUUUUUG

The variants in the series derive from B1. In words: polymerase ribozyme fitness, log enrichment relative to wild type (log ratio); higher = more active; in vitro selection for triplet polymerase activity. The method in brief:
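Fitness measures genotype enrichment against wild-type enrichment on a logarithmic scale, with inverse-variance-weighted averaging of replicates. The logarithm is base 2, and genotypes were kept only with ≥10 input reads and ≥1 read per output in Illumina sequencing. The sequenced libraries came from one triplicate in vitro selection round, including frozen incubation at −7 °C, of PCR-built, transcribed mutant libraries of each subunit of a heterodimeric triplet polymerase ribozyme.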
Turning to GACCAAUCUGCCCUCAGAGCUCGAGAACAUCUUCGGAUGCAAAGGAGGCAGGCUUCGGUGGCUCGAUAGCGCCAACGUCCUCAACCUCCAAUGCAUCCCACCACAUGAUGAUGCCUGAAGAGCCUUGGUUUUUUG [G42A G63U], the “polymerase ribozyme fitness (log ratio)” value was -3.48.

Take GACCAAUCUGCCCUCAGAGCUCGAGAACAUCUUCGGAUGCAAAGGAGGCAGGCUUCGGUGGCGCGAUAGCUCCAACGUCCUCAACCUCCAAUGCAUCCCACCACAUGAUGAUGCCUGAAGAGCCUUGGUUUUUUG [G42A G71U]: the “polymerase ribozyme fitness (log ratio)” value was -2.41.

On to GACCAAUCUGCCCUCAGAGCUCGAGAACAUCUUCGGAUGCAAAGGAGCCAGGCUUCGGUGGAGCGAUAGCGCCAACGUCCUCAACCUCCAAUGCAUCCCACCACAUGAUGAUGCCUGAUGAGCAUUGGUUUUUUG [G42A G48C C62A A119U C124A], for which the “polymerase ribozyme fitness (log ratio)” value is -3.3.

GACCAAUCUGCCCUCAGAGCUCGAGAACAUCUUCGGAUGCAAAGGAGGCAGGCUCCGGUGGCGCGAUAGCGCCAACGUCCUCAACCUCCAAUGCAUCCCACCACAUGAUGAUGCCUGAAGAGCCUUGGUUUUUUG [G42A U55C]: the “polymerase ribozyme fitness (log ratio)” value is -2.24.

As to GACCAAUCUGCCCUCAGAGCUCGAGAACAUCUUCGGAUGCAAAGGAGGCAGGCUUCGGUGUCGCGAUAGCGCCAACGUCCUCAACCUCCAAUGCAUCCCACCACAUGAUGAUGCCUGAAGAGCCUUGGUUUUUUG [G42A G61U], the “polymerase ribozyme fitness (log ratio)” value is -2.48.

Regarding GACCAAUCUGCCCUCAGAGCUCGAGAACAUCUUCGGAUGCAAAGGAGGCAGGCUUCGGUGGCGCGAUAUCGCCAACGUCCUCAACCUCCAAUGCAUCCCACCACAUGAUGAUGCCUGAAGAGCCUUGGUUUUUUG [G42A G69U], the “polymerase ribozyme fitness (log ratio)” value was -0.125.

For the variant GACCAAUCUGCCCUCAGAGCUCGAGAACAUCUUCGGAUGCAAAGGAGGCAGGCUUCGGUGGCACGAUAGCGCCAACGUCCUCUACCUCCAAUGCAUCCCACCACAUGAUGAUGCCUGAAGUGCCUUGGUUUUUUG [G42A G63A A83U A121U], the “polymerase ribozyme fitness (log ratio)” value is -3.11.

Take GACCAAUCUGCCCUCAGAGCUCGAGAACAUCUUCGGAUGCAAAGGAGGCAGGCUUCGGUGGCGCGAUAGCGCCAACGGCCUCAACCCCCAAUGCAUCCCACCACAUGAUGAUGUCUGAAGAGCCUUGGUUUUUUG [G42A U78G U87C C114U]: the “polymerase ribozyme fitness (log ratio)” value is -2.18.

On to GACCAAUCUGCCCUCAGAGCUCGAGAACAUCUUCGGAUGCACAGGAGGCAGGCUUCGGUGGCGCGAUAGCGCCAACGUCCUCAACCUCCAAUGCAUCCCACCACAUGAUGAUGCCUGAAGAGCCUUGGUUUUUUG [G42C], for which the “polymerase ribozyme fitness (log ratio)” value is -1.3.

As to GACCAAUCUGCCCUCAGAGCUCGAGAACAUCUUCGGAUGCAAAGGAGGCAGGCUUCGGUUGCGCGAUAUCGCCAACGUCCUCAACCUCCAAUGCAUCCCACCACAUGAUGAUGCCUGAAGAGCCUUGGUUUUUUG [G42A G60U G69U], the “polymerase ribozyme fitness (log ratio)” value is -6.05.

As to GACCAAUCUGCCCUCAGAGCUCGAGAACAUCUUCGGAUGCAAAGGAGGCAGGCUUCGGUGGCGCGAUAUCGCCAAAGUCCUCAACCUCCAAUGCAUCCCACCACAUGAUGAUGCCUGAAGUGCCUUGGUUUUUUG [G42A G69U C76A A121U], the “polymerase ribozyme fitness (log ratio)” value is -3.23.

Take GACCAAUCUGCCCUCAGAGCUCGAGAACAUCUUCGGAUGCAAAGGAGGCAGGCUUCGGUGGCGCGAUAGCGCCAACGUCCUCAACCUCCAAUGCAUCCCACCACAUGAUGAUGCCUGAAGAGCCUUGCUUUUUUG [G42A G128C]: the “polymerase ribozyme fitness (log ratio)” value is -4.63.

As to GACCAAUCUGCCCUCAGAGCUCGAGAACAUCUUCGGAUGCAAAGGAGGCAGGCUUCGGUGGCGCGAUAGCUCCAACGUCCUCAACCUCCAAUGCAUCCCACCACAUGAUGAUGCCUGAUGAGCCUUGGUUUUUUG [G42A G71U A119U], the “polymerase ribozyme fitness (log ratio)” value was -2.99.

Regarding GACCAAUCUGCCCUCAGAGCUCGAGAACAUCUUCGGAUGCAAAGGAGGCAGGCUUCGGUAGCGCGAUAGCGCCAACGUCCUCAACCUCCAAUGCAUCCCACCACAUGAUGAUGCCUGAAGAGCCUUGGUUUUUUG [G42A G60A], the “polymerase ribozyme fitness (log ratio)” value was -2.03.

As to GACCAAUCUGCCCUCAGAGCUCGAGAACAUCUUCGGAUGCAAAGGAGGCAGGCUUCGGUGGCGCGAUAGCGCCAACGUCCUCAACCUCCAAUGCAUCCCACCACAUGAUGAUGCCUGAAGAGCCUUGGAUUUUUG [G42A U129A], the “polymerase ribozyme fitness (log ratio)” value was -3.37.

With GACCAAUCUGCCCUCAGAGCUCGAGAACAUCUUCGGAUGCAAAGGAGGCAGGCUUCGGUGCCGCGAUAGCGCCAACGUCCUCAACCUCCAAUGCAUCCCACCACAUGAUGAUGCCUGAAGAGCCUUGGUUUUAUG [G42A G61C U133A], the “polymerase ribozyme fitness (log ratio)” value was -5.31.

Take GACCAAUCUGCCCUCAGAGCUCGAGAACAUCUUCGGAUGCAAAGGAGGCAGGCUUCGGUGGCGCGAUAGCGCCAACGUCCUCAACCUCCAAUGCAUCCCACCACAUGAUGAUGCCUAAAGAGCCUUGGUUUUUUG [G42A G117A]: the “polymerase ribozyme fitness (log ratio)” value was -2.65.

As for GACCAAUCUGCCCUCAGAGCUCGAGAACAUCUUCGGAUGCAAAGGAGGCAGGCUUCGGUGGCGCGAUAGCGCCAACGACCUCAACCCCCAAUGCAUCCCACCACAUGAUGAUGUCUGAAGAGCCUUGGUUUUUUG [G42A U78A U87C C114U], the “polymerase ribozyme fitness (log ratio)” value was -2.27.

In the case of GACCAAUCUGCCCUCAGAGCUCGAGAACAUCUUCGGAUGCAAAGGAGGCAGGCUUCGGUGGCGCGAUAGCGCCAACGUCCUCAACCUCCAAUGCAACCCACCACAUGAUGAUGCCUGAAGAGCCUUGGUUUUUUG [G42A U96A], the “polymerase ribozyme fitness (log ratio)” value was -2.83.

For the variant GACCAAUCUGCCCUCAGAGCUCGAGAACAUCUUCGGAUGCAAAGGAGGCAGGCUUCGGUGGCGCGAUAGCGCCAACGUCCACAACCUCCAAUGCAUCCCACCACAUGAUGAUGCCUGAAGAGCCUUGGUUUUUUG [G42A U81A], the “polymerase ribozyme fitness (log ratio)” value was -4.25.

In the case of GACCAAUCUGCCCUCAGAGCUCGAGAACAUCUUCGGAUGCAAAGGAGGCAGGCUUCGGUGGCCCGAUAGCGCCAACGUCCUCAACCUCCAAUGCAUCCCACCACAUGAUGAUGCCUGAAGAGCCUUGGUUUUGUG [G42A G63C U133G], the “polymerase ribozyme fitness (log ratio)” value was -3.43.
